Assays:
[1] = biological target: human CD40 on primary human B cells or human monocyte-derived dendritic cells (human, UniProt P25942 21-277); test: cell-based or functional assay
[2] = biological target: T1, biotinylated mouse CD40 (Acro Biosystem) (mouse, UniProt P27512 24-193, limits assumed, biotinylated (sites not given)); test: SPR (ProteOn XPR36), bio-mCD40 on NLC chip, Protein #5 as analyte
T1 construct: also called Bio-mCD40
T1 sequence (looked up): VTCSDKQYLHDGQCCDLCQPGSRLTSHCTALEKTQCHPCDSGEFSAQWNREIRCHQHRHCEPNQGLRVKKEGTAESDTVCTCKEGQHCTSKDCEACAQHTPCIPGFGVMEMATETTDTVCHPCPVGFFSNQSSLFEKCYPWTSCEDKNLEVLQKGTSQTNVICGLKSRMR
Experimental: (§1) All SPR measurements were performed using a ProteOn XPR36 instrument (BioRad) and a running buffer of PBS pH 7.4 containing 0.005% Tween 20® (PBST). The 1:1 Langmuir model was used for the fitting of SPR traces.
ProteOn setup for Protein #5 binding to CD40 of different species. CD40 proteins (Acro Biosystem) of different species (human, cynomolgus, mouse) were biotinylated with standard methods known in the art, resulting in bio-hCD40, bio-cCD40 and bio-mCD40 proteins. The bio-hCD40, bio-cCD40 and bio-mCD40 proteins were immobilized on an NLC chip (BioRad) to a level of respectively 300 RU, 250 RU and 300 RU. The interaction of Protein #5 with CD40 was measured by injecting Protein #5 in a serial dilution of 3, 1.5, 0.75, 0.38 and 0.19 nM with an association of 120 s and dissociation of 900 s using a constant flow of 100 μl/min. The measurement was repeated two or three times and the targets were regenerated between the individual measurements using 10 mM glycine pH 2 for 18 s at a flow of 100 μl/min. The signals were double referenced against the running buffer (PBST) treated control lanes.

mouse FAP = biological target: T2, mouse FAP (mouse, UniProt P97321 26-761, limits assumed); test: SPR (ProteOn XPR36), mFAP immobilized on GLC chip, Protein #5 as analyte
T2 construct: also called mFAP
T2 sequence (looked up): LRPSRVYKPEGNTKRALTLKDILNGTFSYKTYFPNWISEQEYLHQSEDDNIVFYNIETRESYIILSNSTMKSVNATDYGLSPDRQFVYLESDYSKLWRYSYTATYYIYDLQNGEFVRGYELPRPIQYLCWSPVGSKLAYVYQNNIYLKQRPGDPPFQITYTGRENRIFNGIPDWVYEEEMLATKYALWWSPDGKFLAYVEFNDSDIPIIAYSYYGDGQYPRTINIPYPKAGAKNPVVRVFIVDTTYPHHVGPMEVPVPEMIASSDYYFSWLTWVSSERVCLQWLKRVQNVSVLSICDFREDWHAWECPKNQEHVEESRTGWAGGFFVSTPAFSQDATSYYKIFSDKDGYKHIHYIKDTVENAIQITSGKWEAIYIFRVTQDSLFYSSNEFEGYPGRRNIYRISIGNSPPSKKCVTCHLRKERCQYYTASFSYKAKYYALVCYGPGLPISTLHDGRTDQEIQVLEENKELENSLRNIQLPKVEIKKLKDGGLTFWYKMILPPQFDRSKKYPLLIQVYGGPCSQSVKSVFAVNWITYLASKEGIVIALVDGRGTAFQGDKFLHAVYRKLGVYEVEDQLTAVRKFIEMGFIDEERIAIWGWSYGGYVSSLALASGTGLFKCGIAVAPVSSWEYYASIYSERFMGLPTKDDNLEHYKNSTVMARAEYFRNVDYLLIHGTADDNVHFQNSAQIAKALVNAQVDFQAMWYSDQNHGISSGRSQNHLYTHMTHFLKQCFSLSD
Experimental: as §1
ProteOn setup for Protein #5 binding to FAP of different species. hFAP, cynomolgus FAP (cFAP) and mouse FAP (mFAP) were immobilized on a GLC chip (BioRad) in 10 mM Na Acetate buffer pH5.3 to a level of 1200 RU, 800 RU and 2000 RU, respectively. The interaction of FAP and Protein #5 was measured by applying Protein #5 in a serial dilution of […] and 3.13 nM with an association of 120 s and dissociation of 1800 s using a constant flow of 100 μl/min. The targets were regenerated using 10 mM glycine pH 2 and 124 mM H₃PO₄. The signals were double referenced against the PBST treated control lanes.

human serum albumin = biological target: T3, human serum albumin (human, UniProt P02768 25-609); test: SPR (ProteOn XPR36), Protein #5 captured on hFAP-coated GLC chip, serum albumin as analyte, PBST
T3 construct: also called HSA
T3 sequence (P02768 25-609 limits assumed): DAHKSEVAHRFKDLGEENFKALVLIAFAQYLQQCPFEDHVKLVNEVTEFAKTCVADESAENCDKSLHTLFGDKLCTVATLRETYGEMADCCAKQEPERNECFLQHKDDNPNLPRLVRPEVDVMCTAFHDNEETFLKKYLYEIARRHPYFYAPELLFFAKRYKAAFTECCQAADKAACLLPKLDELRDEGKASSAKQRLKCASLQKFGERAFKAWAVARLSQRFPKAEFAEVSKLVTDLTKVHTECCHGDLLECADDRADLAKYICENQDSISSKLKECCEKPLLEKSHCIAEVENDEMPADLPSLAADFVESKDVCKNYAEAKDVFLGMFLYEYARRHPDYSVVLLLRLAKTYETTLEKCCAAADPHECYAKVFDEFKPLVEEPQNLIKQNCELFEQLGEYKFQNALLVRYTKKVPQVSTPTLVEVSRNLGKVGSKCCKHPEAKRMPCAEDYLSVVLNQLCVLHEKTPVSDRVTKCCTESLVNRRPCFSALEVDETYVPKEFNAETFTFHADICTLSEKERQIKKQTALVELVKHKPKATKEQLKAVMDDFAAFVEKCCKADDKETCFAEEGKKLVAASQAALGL
Experimental: as §1
(§2) ProteOn setup for Protein #5 binding to serum albumin of different species. First, human FAP (hFAP) was coated on a GLC chip (BioRad) to a level of 700 RU before 50 nM Protein #5 was immobilized as analyte for 120 s (dissociation of 0 s) at constant flow of 100 μl/min to a level of 120 RU. The binding of the serum albumin to Protein #5 was measured by injecting human serum albumin (HSA), cynomolgus serum albumin (CSA) and mouse serum albumin (MSA) in a serial dilution of 100, 33, 11 and 3.7 nM with an association of 120 s and a dissociation of 600 s at a constant flow of 100 μl/min. HSA, CSA and MSA binding was measured serially and the hFAP/Protein #5 complex was regenerated each time with 10 mM glycine pH2 for 18 s at a flow of 100 μl/min. Thus, Protein #5 had to be re-immobilized on hFAP after each regeneration step. […] The kinetic was calculated on the first 300 s of dissociation.

cynomolgus serum albumin = biological target: T4, cynomolgus serum albumin (cynomolgus, UniProt A2V9Z4 25-608); test: as above
T4 construct: also called CSA
T4 sequence (A2V9Z4 25-608 limits assumed): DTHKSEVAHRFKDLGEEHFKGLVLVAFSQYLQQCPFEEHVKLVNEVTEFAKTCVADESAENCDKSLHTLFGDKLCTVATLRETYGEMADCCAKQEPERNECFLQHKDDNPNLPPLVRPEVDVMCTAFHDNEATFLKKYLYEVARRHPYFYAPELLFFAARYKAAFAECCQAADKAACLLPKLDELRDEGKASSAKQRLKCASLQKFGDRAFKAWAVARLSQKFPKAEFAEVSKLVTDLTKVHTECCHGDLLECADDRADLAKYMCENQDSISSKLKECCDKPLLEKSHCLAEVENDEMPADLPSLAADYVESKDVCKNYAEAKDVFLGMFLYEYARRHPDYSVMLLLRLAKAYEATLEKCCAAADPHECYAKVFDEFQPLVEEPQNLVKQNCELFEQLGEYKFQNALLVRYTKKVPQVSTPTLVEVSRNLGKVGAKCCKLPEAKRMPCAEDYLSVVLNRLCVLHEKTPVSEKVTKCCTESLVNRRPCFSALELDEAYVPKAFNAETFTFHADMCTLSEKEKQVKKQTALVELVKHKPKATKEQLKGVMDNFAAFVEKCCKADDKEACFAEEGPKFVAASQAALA
Experimental: as §1, §2

mouse serum albumin [3] = biological target: T5, mouse serum albumin (mouse, UniProt P07724 25-608); test: SPR (ProteOn XPR36), Protein #5 captured on hFAP-coated GLC chip, serum albumin as analyte, PBST; flagged as overestimated, inaccurate fit
T5 construct: also called MSA
Experimental: as §1, §2

mouse serum albumin [4] = biological target: T5, mouse serum albumin; test: SPR (ProteOn XPR36), Protein #5 captured on hFAP-coated GLC chip, serum albumin as analyte, PBST; flagged as overestimated, inaccurate fit; MSA as analyte; patent flags the fit as inaccurate (Chi^2/Rmax 13.1 %) and the KD as overestimated due to nonspecific binding of MSA on the chip
Experimental: as §1, §2

human CD40 on primary human B cells or human monocyte-derived dendritic cells, sequence (P25942 21-277 H80K/K81H limits assumed): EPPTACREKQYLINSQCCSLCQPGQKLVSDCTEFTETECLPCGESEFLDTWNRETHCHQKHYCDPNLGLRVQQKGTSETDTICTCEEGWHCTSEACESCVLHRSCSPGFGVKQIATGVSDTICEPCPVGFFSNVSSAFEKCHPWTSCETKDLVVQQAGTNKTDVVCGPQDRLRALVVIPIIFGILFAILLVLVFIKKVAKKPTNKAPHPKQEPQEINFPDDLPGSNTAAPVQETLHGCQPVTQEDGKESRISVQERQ

B1: DARPin Protein #5 (designed binder)
chain: GSDLGKKLLEAARAGQDDEVRELLKAGADVNAKDYFSHTPLHLAARNGHLKIVEVLLKAGADVNAKDFAGKTPLHLAAADGHLEIVEVLLKAGADVNAQDIFGKTPADIAADAGHEDIAEVLQKAAGSPTPTPTTPTPTPTTPTPTPTGSDLGKKLLEAARAGQDDEVRILLAAGADVNAKDVLGWTPLHLAAFEGHLEIVEVLLKAGADVNAKDKKGWTPLQLAARTGHLEIVEVLLKAGADVNAKDHIGATPLHLAAWQGHPEIVEVLLKAGADVNAQDKSGKTPADLAADAGHEDIAEVLQKAAGSPTPTPTTPTPTPTTPTPTPTGSDLGKKLLQAARAGQLDEVRELLKAGADVNAKDTWGFTPLHIAAESGHLEIVEVLLKAGADVNAKDVQGRTPLHIAAHSGHLEIVEVLLKAGADVNAKDFRGWTPLHLAAWSGHLEIVEILLKAGADVNAQDKSGKTPADLAARAGHQDIAEVLQKAAGSPTPTPTTPTPTPTTPTPTPTGSDLGKKLLQAARAGQLDEVRELLKAGADVNAKDTWGFTPLHIAAESGHLEIVEVLLKAGADVNAKDVQGRTPLHIAAHSGHLEIVEVLLKAGADVNAKDFRGWTPLHLAAWSGHLEIVEILLKAGADVNAQDKSGKTPADLAARAGHQDIAEVLQKAA
notes: also called SMA136; Molecule No. 1
For B1, the “EC50, upregulation of CD86 and CD69 in human B cells co-cultured with FAP-expressing CHO cells” value [1] was 0.04 to 0.07 nM, the binding result [2] was “no binding (tested: 3 nM (highest concentration injected))” and the binding result (mouse FAP) was “no binding (tested: 50 nM (highest concentration injected))”. It also gave a Kd (human serum albumin) of 50 nM, a koff (human serum albumin) of 0.0179 s⁻¹ and a kon (human serum albumin) of 358000 M⁻¹ s⁻¹. It also gave a Kd (cynomolgus serum albumin) of 409 nM, a koff (cynomolgus serum albumin) of 0.217 s⁻¹ and a kon (cynomolgus serum albumin) of 532000 M⁻¹ s⁻¹. The koff (mouse serum albumin [3]) was 0.0126 s⁻¹, the kon (mouse serum albumin [3]) was 315000 M⁻¹ s⁻¹ and the Kd (mouse serum albumin [4]) was 40 nM.

From patent US20210395318A1 (Molecular Partners, published 2021)
